In patent US20120027773A1 (AVEO PHARMACEUTICALS, published 2012):
Residue numbers refer to the chain shown, from its start. Numbers in names are those of the source.

B1: Sh29B06-78 (antibody, human IgG1, kappa, V domains shown)
VH: QVQLQESGPGLVKPSETLSLTCTVSGGSISSGYWNWIRKPPGKKLEYIGYISYSGKTYYNPSLKSRVTISRDTSKNQFSLKLSSVTAADTAVYYCARSKYDYAMDYWGQGTLVTVSS
VL: DIVMTQSPLSLPVTPGEPASISCRASEIVDNFGISFMNWYLQKPGQSPQLLIYAASNQGSGVPDRFSGSGSGTDFTLKISRVEAEDVGVYYCQQSKEVPPTFGGGTKVEIKR
notes: Humanized, human IgG1/kappa: Hu29B06 Hv4-59 D27G T30S M48I I67V Y78F IgG1 + Sh29B06 Kv2-28 Kappa
B2: Sh07F01-62 (antibody, human IgG1, kappa, V domains shown)
VH: EVQLVESGGGLVQPGGSLRLSCAASGFTFSRHWMSWVRQAPGKGLEWVSEINPDSRTINYAPSVKGRFTISRDNAKNSLYLQMNSLRAEDTAVYYCARRVRIHYYGAMDSWGQGTTVTVSS
VL: DIQLTQSQSFVSTSVGDRVTVTCRASQNVGSSLVWYQQKPGKSPKTLIYSASFLYSGVPSRFSGSGSGTEFTLTISSVQPEDFADYFCQQYNNYPLTFGGGTKVEIKR
notes: Humanized, human IgG1/kappa: Sh07F01 Hv3-48 D28T T60A L63V E65G IgG1 + HE L 07F01 Kv1-9 Kappa
B3: RON8 (antibody, V domains shown)
VH: EVQLVESGGGLVQPGGSLRLSCAASGFTFSSYLMTWVRQAPGKGLEWVANIKQDGSEKYYVDSVKGRFTISRDNAKNSLNLQMNSLRAEDTAVYYCTRDGYSSGRHYGMDVWGQGTTVIVSS
VL: EIVLTQSPATLSLSPGERATLSCRASQSVSRYLAWYQQKPGQAPRLLIYDASNRATGIPARFSGSGSGTDFTLTISSLEPEDFAVYYCQQRSNWPRTFGQGTKVEIKR
B4: Sh29B06-9 (antibody, human IgG1, kappa, V domains shown)
VH: EVQLQESGPSLVKPSQTLSLTCSVTGDSITSGYWNWIRKFPGNKLEYMGYISYSGKTYYNPSLKSRISITRDTSKNHYYLQLISVTAEDTATYYCARSKYDYAMDYWGQGTSVTVSS
VL: B1 VL
notes: Chimeric 29B06 Heavy IgG1 + Sh29B06 Kv2-28 Kappa
B5: Sh29B06-23 (antibody, human IgG1, kappa, V domains shown)
VH: B1 VH with G27D, S30T, I48M, V67I, F78Y
VL: B1 VL
notes: Humanized, human IgG1/kappa: Hu29B06 Hv4-59 IgG1 (CDR graft with back mutations) + Sh29B06 Kv2-28 Kappa
B6: Sh07F01-2 (antibody, human IgG1, kappa, V domains shown)
VH: EVKLLESGGGLVQPGGSLKLSCAASGFDFSRHWMSWVRLAPGKGLEWIAEINPDSRTINYTPSLKEKFIISRDNAKNSLFLQMNRVRSEDTALYYCARRVRIHYYGAMDSWGQGTSVTVSS
VL: DIVLTQSQKIVSTSVGARVSVTCKASQNVGSSLVWYQQKPGQSPKTLIYSASFRYSGVPDRFTGSGSGTDFTLTISNVQSEDLADYFCQQYNNYPLTFGAGTKLELKR
notes: also called Chimeric 07F01 C102S
B7: Sh07F01-69 (antibody, human IgG1, kappa, V domains shown)
VH: B2 VH with T28D, A61T, V64L, G66E
VL: B2 VL with Q8P, V11L, T13A, V21I, S43A, V78L, D85T, F87Y
notes: Humanized, human IgG1/kappa: Sh07F01 Hv3-48 IgG1 + Sh07F01 Kv1-9 F1 Kappa
B8: Sh07F01-83 (antibody, human IgG1, kappa, V domains shown)
VH: B2 VH
VL: B2 VL with Q8P, V11L, T13A, V21I, S43A, V78L, D85T, F87Y
notes: Humanized, human IgG1/kappa: Sh07F01 Hv3-48 D28T T60A L63V E65G IgG1 + Sh07F01 Kv1-9 F1 Kappa
B9: Sh07F01-43 (antibody, human IgG1, kappa, V domains shown)
VH: B2 VH with T28D, A61T, V64L, G66E
VL: B2 VL
notes: Humanized, human IgG1/kappa: Sh07F01 Hv3-48 IgG1 + HE L 07F01 Kv1-9 Kappa

target: T1, delta 160 RON variant (cell surface) (human, UniProt Q04912 25-1400); test: FACS titration on HT29 cells, 4 C
T1 construct: whole, on cells; Splice variant; also called delta 160 variant
Procedure: (§1) Binding to cell surface human wild-type RON and the delta 160 RON variant by antibodies 07F01, Sh07F01-62, 29B06, and Sh29B06-78 was measured at 4° C., using Fluorescence Activated Cell Sorting (FACS). PC3 cells expressing the human wild-type RON, and HT29 cells expressing the delta 160 variant, were harvested using cell dissociation buffer (Invitrogen), washed twice with FACS buffer (PBS with 0.5% BSA), and treated 10 minutes with Cyto Q Antibody diluent and FC receptor block (Innovex Biosciences, Richmond, Calif.). Purified antibodies were diluted in FACS buffer over a concentration range from 0.01 nM to 25 nM. Cells were incubated with 100 μl of antibody for one hour, washed with FACS buffer three times, and incubated for 45 minutes with goat anti-mouse PE-conjugated antibody (Jackson ImmunoResearch Laboratories, West Grove, Pa.) or donkey anti-human PE-conjugated antibody (Jackson ImmunoResearch Laboratories, West Grove, Pa.). Cells were washed three times with FACS buffer, resuspended in 300 μl of FACS buffer, and analyzed using a Beckman Coulter Cytomics FC 500 FACS instrument. All four antibodies were compared in the same experiment.

Kd [nM] | Binder
0.239 | B1
0.118 | B2

target: T2, recombinant human RON SEMA and PSI domains (human, UniProt Q04912 25-571); test: SPR, Ab captured on anti-human IgG Fc, 25 C
T2 construct: domain: SEMA+PSI; Commercial protein (R&D Systems); also called rhRON SEMA+PSI; hRON SEMA+PSI

Kd [nM] | koff [s⁻¹] | kon [M⁻¹ s⁻¹] | Binder
0.048 | 3.1e-05 | 680000 | B1
0.67 | 0.00068 | 1.2e+06 | B3
0.085 | 0.00016 | 1.8e+06 | B2

target: T2, recombinant human RON SEMA and PSI …; test: SPR, Ab captured on anti-human IgG Fc, 37 C

Kd [nM] | koff [s⁻¹] | kon [M⁻¹ s⁻¹] | Binder
0.11 | 0.0001 | 960000 | B1
0.92 | 0.0025 | 7e+06 | B3
0.25 | 0.00069 | 2.8e+06 | B2

target: T2, recombinant human RON SEMA and PSI …; test: SPR, Ab captured on anti-human IgG Fc, 37 C, screening
Procedure: (§2) Goat anti-human IgG Fc (Jackson ImmunoResearch, Catalog No. 109-005-098) was immobilized on carboxymethylated dextran CM4 sensor chips (Biacore) by amine coupling (Biacore) using a standard coupling protocol according to the vendor's instructions. The analyses were performed at 37° C. using PBS (Invitrogen) containing 0.05% surfactant P20 (Biacore) as running buffer.
(§3) The antibodies were captured in individual flow cells at a flow rate of 60 μl/minute. Injection time was varied for each antibody to yield an Rₘₐₓ between 30 and 60 RU. Buffer or rhRON SEMA+PSI diluted in running buffer was injected sequentially over a reference surface (no antibody captured) and the active surface (antibody to be tested) for 300 seconds at 60 μl/minute. The dissociation phase was monitored for up to 1200 seconds. The surface was then regenerated with two 60 second injections of Glycine pH 2.25 (made from Glycine pH 2.0 (Biacore) and pH 2.5 (Biacore)) at 60 μl/minute. For the initial screening, only one or two concentrations of rhRON SEMA+PSI were tested, typically 10.0 and 2.5 nM (results are summarized in Table 20).
Kinetic parameters were determined using the kinetic function of the BIAevaluation software (Biacore) with double reference subtraction. Kinetic parameters for each antibody, kₐ (association rate constant), kd (dissociation rate constant) and KD (equilibrium dissociation constant) were determined. Certain monoclonal antibodies were screened using cell culture media supernatant containing secreted antibody, and kinetic values of the monoclonal antibodies on rhRON SEMA+PSI at 37° C. are summarized in Table 20.

Kd [nM] | koff [s⁻¹] | kon [M⁻¹ s⁻¹] | Binder
0.26 | 0.00022 | 870000 | B4
0.64 | 0.00048 | 780000 | B5
0.38 | 0.00073 | 2e+06 | B6
0.36 | 0.0014 | 3.9e+06 | B2
0.56 | 0.0012 | 2.3e+06 | B7
0.54 | 0.0014 | 2.6e+06 | B8

target: T2, recombinant human RON SEMA and PSI …; test: SPR, purified Ab captured on anti-human IgG Fc, 37 C
Procedure: as §2, §3
The binding affinities and kinetics of certain purified monoclonal antibodies were also determined. To further characterize certain antibodies, the surface plasmon resonance experiments described above were conducted using concentrations of rhRON SEMA+PSI between 0.3125 nM and 10.0 nM (a 2-fold serial dilution).

Kd [nM] | koff [s⁻¹] | kon [M⁻¹ s⁻¹] | Binder
0.11 | 0.00011 | 1e+06 | B1
0.46 | 0.00033 | 730000 | B5
0.31 | 0.00053 | 1.7e+06 | B6
0.25 | 0.00069 | 2.8e+06 | B2
0.3 | 0.00078 | 2.5e+06 | B7
0.24 | 0.00079 | 3.2e+06 | B8
0.3 | 0.00056 | 1.8e+06 | B9

target: T3, human wild-type RON (cell surface) (human, UniProt Q04912 25-1400); test: FACS titration on PC3 cells, 4 C
T3 construct: whole, on cells; also called Human RON; wt RON
Procedure: as §1

Kd [nM] | Binder
0.09 | B1
0.043 | B2

target: T2, recombinant human RON SEMA and PSI …; test: SPR, purified Ab captured on anti-human IgG Fc, 25 C

Kd [nM] | koff [s⁻¹] | kon [M⁻¹ s⁻¹] | Binder
0.052 | 3.9e-05 | 750000 | B1
0.14 | 9.5e-05 | 670000 | B5
0.082 | 9.8e-05 | 1.2e+06 | B6
0.085 | 0.00016 | 1.8e+06 | B2
0.12 | 0.00014 | 1.1e+06 | B7
0.11 | 0.00018 | 1.6e+06 | B8
0.09 | 0.00011 | 1.2e+06 | B9
